Laboratory results reported in patent publication US20220315554A1, “COMPOUNDS COMPRISING A […] LIGAND AND USE THEREOF” (priority 2019, published 2022).
Bridge positions count the residues as written; N and C are the ends. * marks the point of attachment. tMeBn(DOTA-AET) = Cys-Cys bridge (thioethers) carrying DOTA-AET; tMeBn(DOTA-PP) = Cys-Cys bridge (thioethers) carrying DOTA-PP; Hexanoyl = CCCCCC(=O)*

T1: D1 (h) (human (printed (h))), P21728
T1 chain: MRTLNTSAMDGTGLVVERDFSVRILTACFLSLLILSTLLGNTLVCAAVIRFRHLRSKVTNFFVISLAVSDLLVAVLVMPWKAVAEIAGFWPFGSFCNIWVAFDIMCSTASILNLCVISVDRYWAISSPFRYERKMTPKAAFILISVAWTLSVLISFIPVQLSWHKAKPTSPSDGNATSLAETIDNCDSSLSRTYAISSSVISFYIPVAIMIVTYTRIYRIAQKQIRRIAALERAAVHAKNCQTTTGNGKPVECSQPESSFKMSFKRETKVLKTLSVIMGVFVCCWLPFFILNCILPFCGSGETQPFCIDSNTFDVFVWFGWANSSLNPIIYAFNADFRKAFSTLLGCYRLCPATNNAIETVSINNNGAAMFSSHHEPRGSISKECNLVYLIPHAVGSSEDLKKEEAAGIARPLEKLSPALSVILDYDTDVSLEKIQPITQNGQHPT

T2: A2A (h) (human (printed (h))), P29274
T2 chain: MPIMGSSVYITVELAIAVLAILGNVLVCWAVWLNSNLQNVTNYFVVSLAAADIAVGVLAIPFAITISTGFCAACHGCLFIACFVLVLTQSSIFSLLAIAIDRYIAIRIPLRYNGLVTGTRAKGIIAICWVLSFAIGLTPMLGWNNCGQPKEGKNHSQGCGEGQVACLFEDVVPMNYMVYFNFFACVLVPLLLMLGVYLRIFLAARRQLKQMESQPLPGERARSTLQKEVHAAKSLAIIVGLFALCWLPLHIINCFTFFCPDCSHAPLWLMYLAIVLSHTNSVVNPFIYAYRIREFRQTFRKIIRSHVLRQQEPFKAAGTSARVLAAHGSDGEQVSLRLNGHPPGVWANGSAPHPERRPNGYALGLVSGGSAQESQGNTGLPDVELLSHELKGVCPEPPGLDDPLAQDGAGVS

T3: Potassium Channel hERG (human) (human), Q12809
T3 chain: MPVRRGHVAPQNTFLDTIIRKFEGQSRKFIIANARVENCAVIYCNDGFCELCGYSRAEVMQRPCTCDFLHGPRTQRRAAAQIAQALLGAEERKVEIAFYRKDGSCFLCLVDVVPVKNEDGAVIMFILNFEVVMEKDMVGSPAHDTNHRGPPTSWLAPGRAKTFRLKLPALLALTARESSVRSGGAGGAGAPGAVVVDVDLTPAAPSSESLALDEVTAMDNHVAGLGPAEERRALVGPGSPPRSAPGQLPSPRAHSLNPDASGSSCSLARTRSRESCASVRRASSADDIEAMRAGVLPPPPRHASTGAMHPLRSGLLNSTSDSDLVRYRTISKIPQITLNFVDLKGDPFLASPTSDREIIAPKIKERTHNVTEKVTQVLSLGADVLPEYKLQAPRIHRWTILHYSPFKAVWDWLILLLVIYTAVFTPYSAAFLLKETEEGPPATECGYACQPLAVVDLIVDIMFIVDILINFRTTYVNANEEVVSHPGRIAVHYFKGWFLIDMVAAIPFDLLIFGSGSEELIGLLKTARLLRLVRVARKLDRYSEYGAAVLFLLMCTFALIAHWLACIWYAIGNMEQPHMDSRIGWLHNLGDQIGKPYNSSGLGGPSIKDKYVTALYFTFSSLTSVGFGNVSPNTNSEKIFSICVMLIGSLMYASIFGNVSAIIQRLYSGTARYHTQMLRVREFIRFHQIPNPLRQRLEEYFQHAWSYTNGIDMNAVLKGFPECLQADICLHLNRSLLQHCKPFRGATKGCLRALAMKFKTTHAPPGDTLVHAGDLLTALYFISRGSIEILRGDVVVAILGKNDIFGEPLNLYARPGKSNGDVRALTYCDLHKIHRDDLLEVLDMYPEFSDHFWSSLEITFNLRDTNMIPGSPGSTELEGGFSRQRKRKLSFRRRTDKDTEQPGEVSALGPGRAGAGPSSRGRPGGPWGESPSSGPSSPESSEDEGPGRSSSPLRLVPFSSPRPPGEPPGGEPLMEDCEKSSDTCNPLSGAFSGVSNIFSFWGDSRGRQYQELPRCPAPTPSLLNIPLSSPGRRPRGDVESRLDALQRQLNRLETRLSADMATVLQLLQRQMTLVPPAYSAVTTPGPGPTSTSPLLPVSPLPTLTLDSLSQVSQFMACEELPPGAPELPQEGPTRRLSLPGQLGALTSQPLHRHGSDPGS


How the values were obtained:
Details in all cases: remark: other sources report otherwise
[1] = target: T1, D1 (h) (human (printed (h))), P21728; assay: radioligand displacement, 10 uM compound
[2] = target: V1a (h) (human (printed (h))), P37288; assay: radioligand displacement, 10 uM compound
[3] = target: T2, A2A (h) (human (printed (h))), P29274; assay: radioligand displacement, 10 uM compound
[4] = target: T3, Potassium Channel hERG (human) (human), …; assay: [3H] Dofetilide displacement, 10 uM compound

Binder	% Inhibition of Specific Binding [1]	% Inhibition of Specific Binding [2]	% Inhibition of Specific Binding [3]	% Inhibition of Specific Binding [4]
Hexanoyl-CPPTQFC-OH (linker 1-7 via tMeBn(DOTA-AET)) [Hex-[Cys(tMeBn(DOTA-AET))-Pro-Pro-Thr-Gln-Phe-Cys]-OH (3BP-3554)]	7%	1%	-16%	6%
Hexanoyl-CPPTQFCD-NH2 (linker 1-7 via tMeBn(DOTA-PP)) [Hex-[Cys(tMeBn(DOTA-PP))-Pro-Pro-Thr-Gln-Phe-Cys]-Asp-NH2 (3BP-3407)]	0%	16%	-4%	2%
